Laboratory results taken from patent WO2008021263A2.

Legend:
[1] = molecular target: SDF-1α (stromal cell-derived factor-1 alpha) (Felis catus (Cat) (Felis silvestris catus)) (UniProt O62657); test: SPR, Fab (about 1250 RU) on anti-CH1 chip, saturating SDF-1α (Figure 5: 1D3)
[2] = molecular target: SDF-1α (stromal cell-derived factor-1 alpha) (Felis catus (Cat) (Felis silvestris catus)) (UniProt O62657); test: SPR, calculated as (RU SDF-1α/RU Fab)*(M.Wt Fab/M.Wt SDF-1α), Fab on anti-CH1 chip (Figure 5: 1D3)

Sequence of SDF-1α (stromal cell-derived factor-1 alpha) (Felis catus (Cat) (Felis silvestris catus)) (O62657 22-89 limits assumed): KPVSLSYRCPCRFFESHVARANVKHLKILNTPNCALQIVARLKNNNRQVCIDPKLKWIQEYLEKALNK

B1: 1D3 Fab (Fab, V domains shown)
VH: EVQLVQSGAEVKKPGASVKVSCKVSGYTLTKLSVHWVRQAPGKGLEWMGSFDPEDGETIYSQRFQGRVTMTEDTSTDTAYMELTSLRSEDTAVYYCATEGQWLVAYYGMDVWGQGTTVTVSS
VL: EIVLTQSPSSLSASVGDRVTITCRASQGISSALAWYQQKPGKAPKLLIYDASSLESGVPSRFSGSGSGTDFTLTISSLQPEDFATYYCQQFNSYPLTFGGGTKVEIK
- RUSDF-1α (response units of SDF-1α bound) [1]: 350 RU
- stoichiometry (molecules of SDF-1α bound per Fab molecule) (molecules of SDF-1α per Fab molecule) [2]: 1.75
